According to patent US20130129722A1:
Values belong to the molecule of their own block, whether it stands above or below them.

Experiments:
[1] = target: Human Ang-2FD-hFc (human); experiment: ELISA; 16.67 nM antibody premixed with Ang-2FD-hFc, binding to coated hTie-2-mFc
[2] = target: Monkey Ang-2FD-hFc (monkey (Macca fascicularis)); experiment: as above
[3] = target: Mouse Ang-2FD-hFc (mouse (Mus musculus)); experiment: as above
[4] = target: Dimeric Human Ang-2FD conjugated to human IgG1 (human); experiment: SPR, human IgG1 antibody captured
Chain of Dimeric Human Ang-2FD conjugated to human IgG1 (human) (chain, as listed by the source limits assumed): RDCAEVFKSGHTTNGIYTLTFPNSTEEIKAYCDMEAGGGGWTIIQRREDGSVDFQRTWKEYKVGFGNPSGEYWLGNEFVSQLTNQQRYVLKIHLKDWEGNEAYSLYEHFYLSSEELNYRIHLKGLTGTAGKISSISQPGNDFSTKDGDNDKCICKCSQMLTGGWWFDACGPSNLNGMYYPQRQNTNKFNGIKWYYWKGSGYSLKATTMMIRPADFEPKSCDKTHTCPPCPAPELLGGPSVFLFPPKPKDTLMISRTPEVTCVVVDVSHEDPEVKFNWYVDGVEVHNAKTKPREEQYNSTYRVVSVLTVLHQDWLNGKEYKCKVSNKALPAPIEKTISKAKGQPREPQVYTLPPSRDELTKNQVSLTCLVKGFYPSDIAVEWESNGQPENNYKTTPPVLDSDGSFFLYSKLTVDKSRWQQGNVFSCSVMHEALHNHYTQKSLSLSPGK

[5] = target: Dimeric Monkey Ang-2FD conjugated to human IgG1 (monkey (Macca fascicularis)); experiment: SPR, human IgG1 antibody captured
Chain of Dimeric Monkey Ang-2FD conjugated to human IgG1 (monkey (Macca fascicularis)) (chain, as listed by the source limits assumed): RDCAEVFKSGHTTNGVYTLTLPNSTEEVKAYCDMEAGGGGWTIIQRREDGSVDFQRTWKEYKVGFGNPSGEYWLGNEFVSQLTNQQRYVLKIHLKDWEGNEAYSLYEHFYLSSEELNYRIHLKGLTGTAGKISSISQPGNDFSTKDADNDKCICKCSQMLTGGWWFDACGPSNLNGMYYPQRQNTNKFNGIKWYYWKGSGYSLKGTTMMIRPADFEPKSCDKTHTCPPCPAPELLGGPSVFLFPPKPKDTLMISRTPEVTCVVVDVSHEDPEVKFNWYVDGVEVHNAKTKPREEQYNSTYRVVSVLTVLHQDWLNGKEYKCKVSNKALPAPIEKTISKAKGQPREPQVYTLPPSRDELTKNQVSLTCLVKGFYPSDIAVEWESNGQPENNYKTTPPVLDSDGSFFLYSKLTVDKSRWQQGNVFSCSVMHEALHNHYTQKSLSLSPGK

[6] = target: Dimeric Mouse Ang-2FD conjugated to human IgG1 (mouse (Mus musculus)); experiment: SPR, human IgG1 antibody captured
Chain of Dimeric Mouse Ang-2FD conjugated to human IgG1 (mouse (Mus musculus)) (chain, as listed by the source limits assumed): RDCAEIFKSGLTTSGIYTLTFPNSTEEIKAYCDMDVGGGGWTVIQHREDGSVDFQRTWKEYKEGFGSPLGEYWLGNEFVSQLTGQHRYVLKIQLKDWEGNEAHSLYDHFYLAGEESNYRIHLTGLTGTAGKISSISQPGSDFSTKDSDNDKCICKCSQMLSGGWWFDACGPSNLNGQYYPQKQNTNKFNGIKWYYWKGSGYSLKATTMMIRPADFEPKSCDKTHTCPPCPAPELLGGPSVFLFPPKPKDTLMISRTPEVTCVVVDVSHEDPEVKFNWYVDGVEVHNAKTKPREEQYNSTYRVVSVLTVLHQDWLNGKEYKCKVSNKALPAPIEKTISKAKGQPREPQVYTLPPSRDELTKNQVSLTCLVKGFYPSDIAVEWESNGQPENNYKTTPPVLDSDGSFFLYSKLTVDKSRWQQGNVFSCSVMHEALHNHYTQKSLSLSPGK

Percent Blocking of Ang-2FD Binding to Tie-2 [1]: 97.3%
Percent Blocking of Ang-2FD Binding to Tie-2 [2]: 98.5%
Percent Blocking of Ang-2FD Binding to Tie-2 [3]: 82.2%
Molecule: Control I (Ab) (antibody)

Kd [4]: 115 pM
T1/2 [4]: 1.78 h
Kd [5]: 239 pM
T1/2 [5]: 2.88 h
Kd [6]: 185 pM
T1/2 [6]: 1.4 h
Percent Blocking of Ang-2FD Binding to Tie-2 [1]: 96.6%
Percent Blocking of Ang-2FD Binding to Tie-2 [2]: 96.6%
Percent Blocking of Ang-2FD Binding to Tie-2 [3]: 97.1%
B1: H1H724N (antibody, V domains shown)
VH: QVQLVESGGGVVQPGRSLRLSCAASGFTLSNYGMHWVRQAPGKGLEWVAVIWHDGSNTYYADSVKGRFTISRDNSKNTLYLQMNSLRAEDTAVYYCTREGLDFWSGYYPNWFDPWGQGTLVTVSS
VL: DIQMTQSPSSLSASVGDRVTITCRASQGIRNDLGWYQQKPGKAPKRLIYAASNLQGGVPSRFSGSGSGTEFTLTISSLQPEDFAAYYCLQHNIYPLTFGGGTKVEIK
